{"source": "patent US20230158060A1", "about": "(INFLARX, published 2023)", "binders": {"B1": {"name": "Flag-tagged MASP-2 N-terminal CUB1-EGF-CUB2 region (other, UniProt O00187 16-296, looked up, not shown: small tags and cut ends)", "chain": "TPLGPKWPEPVFGRLASPGFPGEYANDQERRWTLTAPPGYRLRLYFTHFDLELSHLCEYDFVKLSSGAKVLATLCGQESTDTERAPGKDTFYSLGSSLDITFRSDYSNEKPFTGFEAFYAAEDIDECQVAPGEAPTCDHHCHNHLGGFYCSCRAGYVLHRNKRTCSALCSGQVFTQRSGELSSPEYPRPYPKLSSCTYSISLEEGFSVILDFVESFDVETHPETLCPYDFLKIQTDREEHGPFCGKTLPHRIETKSNTVTITFVTDESGDHTGWKIHYTST", "notes": "domain: CUB1-EGF-CUB2"}}, "target": "GFP-tagged SARS-CoV N protein, full length (SARS-CoV, UniProt P59595 1-422)", "sequence (P59595 whole entry)": "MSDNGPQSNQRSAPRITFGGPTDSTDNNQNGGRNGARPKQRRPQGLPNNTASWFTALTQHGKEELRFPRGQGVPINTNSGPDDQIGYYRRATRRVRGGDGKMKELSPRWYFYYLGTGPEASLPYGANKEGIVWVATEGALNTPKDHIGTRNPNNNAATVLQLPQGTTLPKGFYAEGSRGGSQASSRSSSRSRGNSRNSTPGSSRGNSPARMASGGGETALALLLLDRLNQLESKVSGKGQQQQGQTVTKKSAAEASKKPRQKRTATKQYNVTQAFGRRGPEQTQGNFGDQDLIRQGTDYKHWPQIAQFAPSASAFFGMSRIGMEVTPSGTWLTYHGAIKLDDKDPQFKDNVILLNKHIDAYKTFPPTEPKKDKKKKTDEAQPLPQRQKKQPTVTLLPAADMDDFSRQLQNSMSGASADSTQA", "assay": "co-immunoprecipitation on Flag-tagged MASP-2 region beads, anti-GFP immunoblot", "data": [{"binder": "B1", "values": [{"measurement": "binding result", "value": "no binding"}]}]}
